Measurements published in the Immune Epitope Database (IEDB).

What was measured:
HLA-B*39:01 = assay: IEDB peptide-MHC binding, purified MHC/competitive/fluorescence; filed as Kd, often an IC50 or EC50 that approximates it; ≥ and ≤ were set here for values at or beyond the usual limits of such assays
HLA-B*15:17 = assay: as above
HLA-B*15:01 [1] = assay: as above
HLA-A*69:01 [2] = assay: as above
HLA-B*57:01 = assay: as above
HLA-B*46:01 = assay: as above
HLA-B*18:01 = assay: as above
HLA-B*51:01 = assay: as above
HLA-A*26:01 [3] = assay: as above
HLA-A*02:01 [4] = assay: as above
HLA-A*23:01 = assay: IEDB peptide-MHC binding, purified MHC/direct/fluorescence; filed as Kd, often an IC50 or EC50 that approximates it; ≥ and ≤ were set here for values at or beyond the usual limits of such assays
HLA-A*02:16 = assay: as above
HLA-A*02:19 = assay: as above
HLA-A*29:02 = assay: as above
HLA-A*24:03 = assay: as above
HLA-A*68:02 [5] = assay: as above
HLA-A*02:03 = assay: as above
HLA-A*02:11 = assay: as above
HLA-A*03:01 [6] = assay: as above
HLA-B*27:05 = assay: as above
HLA-A*02:12 = assay: as above
HLA-B*08:01 [7] = assay: as above
HLA-B*35:01 [8] = assay: as above
HLA-A*31:01 = assay: as above
HLA-B*15:01 [9] = assay: as above
HLA-A*69:01 [10] = assay: as above
HLA-A*11:01 [11] = assay: as above
HLA-B*40:01 = assay: as above
HLA-A*01:01 = assay: as above
HLA-B*44:02 = assay: as above
HLA-A*26:01 [12] = assay: as above
HLA-A*02:01 [13] = assay: as above
HLA-B*58:01 = assay: as above
HLA-B*07:02 = assay: as above
HLA-B*08:01 [14] = assay: IEDB peptide-MHC binding, purified MHC/competitive/fluorescence; filed as Kd, often an IC50 or EC50 that approximates it; ≥ and ≤ were set here for values at or beyond the usual limits of such assays; conditions: source organism: Influenza A virus (A/duck/Hong Kong/3096/99(H6N2))
HLA-B*35:01 [15] = assay: as above; conditions: source organism: Influenza A virus (A/duck/Hong Kong/3096/99(H6N2))
HLA-A*68:02 [16] = assay: as above; conditions: source organism: Influenza A virus (A/duck/Hong Kong/3096/99(H6N2))
HLA-A*02:06 = assay: as above; conditions: source organism: Influenza A virus (A/duck/Hong Kong/3096/99(H6N2))
HLA-A*26:02 = assay: as above; conditions: source organism: Influenza A virus (A/duck/Hong Kong/3096/99(H6N2))
HLA-A*11:01 [17] = assay: IEDB peptide-MHC binding, purified MHC/competitive/fluorescence; ≥ and ≤ were set here for values at or beyond the usual limits of such assays; conditions: source organism: Zaire ebolavirus
HLA-A*03:01 [18] = assay: as above; conditions: source organism: Zaire ebolavirus
HLA-A*02:01 [19] = assay: as above; conditions: source organism: Zaire ebolavirus
HLA-B*27:03 = assay: IEDB peptide-MHC binding, purified MHC/competitive/fluorescence; filed as Kd, often an IC50 or EC50 that approximates it; ≥ and ≤ were set here for values at or beyond the usual limits of such assays; conditions: source organism: Zaire ebolavirus
[20] = source organism: Escherichia coli O157:H7
[21] = source organism: Coxiella burnetii
[22] = source organism: Influenza A virus (A/duck/Hong Kong/3096/99(H6N2))
[23] = source organism: Influenza A virus (A/tiger/Thailand/CU-T4/04(H5N1))
[24] = source organism: Influenza A virus(A/swine/Shandong/fZC/2003(H9N2))
[25] = source organism: Zaire ebolavirus

Work on GRFQEALKK yielded a Kd (HLA-B*39:01; source organism: Choclo virus) of no less than 20 µM, a Kd (HLA-B*15:17; source organism: Choclo virus) of no less than 20 µM and a Kd (HLA-B*15:01 [1]; source organism: Choclo virus) of no less than 20 µM. The Kd (HLA-A*69:01 [2]; source organism: Choclo virus) was no less than 20 µM, the Kd (HLA-B*57:01; source organism: Choclo virus) was no less than 20 µM and the Kd (HLA-B*46:01; source organism: Choclo virus) was no less than 20 µM. For the same sequence, the Kd (HLA-B*18:01; source organism: Choclo virus) was no less than 20 µM, the Kd (HLA-B*51:01; source organism: Choclo virus) was no less than 20 µM and the Kd (HLA-A*26:01 [3]; source organism: Choclo virus) was no less than 20 µM. For the same sequence, the Kd (HLA-A*02:01 [4]; source organism: Choclo virus) was no less than 20 µM, the Kd (HLA-A*23:01; source organism: Choclo virus) was no less than 20 µM and the Kd (HLA-A*02:16; source organism: Choclo virus) was no less than 20 µM. The Kd (HLA-A*02:19; source organism: Choclo virus) was no less than 20 µM, the Kd (HLA-A*29:02; source organism: Choclo virus) was no less than 20 µM and the Kd (HLA-A*24:03; source organism: Choclo virus) was no less than 20 µM. The Kd (HLA-A*68:02 [5]; source organism: Choclo virus) was no less than 20 µM, the Kd (HLA-A*02:03; source organism: Choclo virus) was no less than 20 µM and the Kd (HLA-A*02:11; source organism: Choclo virus) was no less than 20 µM. The Kd (HLA-A*03:01 [6]; source organism: Choclo virus) was no less than 20 µM, the Kd (HLA-B*27:05; source organism: Orthohantavirus andesense) was 0.0717 µM and the Kd (HLA-A*02:12; source organism: Choclo virus) was no less than 20 µM.

Work on IRNPPMVVF yielded a Kd (HLA-B*08:01 [7]; [20]) of no less than 20 µM, a Kd (HLA-B*35:01 [8]; [20]) of no less than 10000 nM and a Kd (HLA-A*31:01; [20]) of no less than 20 µM. The Kd (HLA-B*15:01 [9]; [20]) was no less than 20 µM, the Kd (HLA-A*69:01 [10]; [20]) was no less than 20 µM and the Kd (HLA-A*11:01 [11]; [20]) was no less than 20 µM. The Kd (HLA-B*40:01; [20]) was no less than 20 µM, the Kd (HLA-A*01:01; [20]) was no less than 20 µM and the Kd (HLA-A*03:01 [6]; [20]) was no less than 20 µM. It also gave a Kd (HLA-B*44:02; [20]) of no less than 20 µM, a Kd (HLA-B*27:05; [20]) of 3.25 µM and a Kd (HLA-A*26:01 [12]; [20]) of no less than 20 µM. For the same sequence, the Kd (HLA-A*02:01 [13]; [20]) was no less than 20000 nM and the Kd (HLA-B*58:01; [20]) was no less than 20 µM.

For WAPEGDIRL, the Kd (HLA-B*08:01 [7]; [21]) was no less than 20 µM, the Kd (HLA-B*35:01 [8]; [21]) was 899 nM and the Kd (HLA-B*07:02; [21]) was 4.29 µM. For the same sequence, the Kd (HLA-A*31:01; [21]) was no less than 20 µM, the Kd (HLA-B*15:01 [9]; [21]) was no less than 20 µM and the Kd (HLA-A*69:01 [10]; [21]) was no less than 20 µM. It also gave a Kd (HLA-A*11:01 [11]; [21]) of no less than 20 µM, a Kd (HLA-B*40:01; [21]) of no less than 20 µM and a Kd (HLA-A*24:03; [21]) of no less than 20 µM. For the same sequence, the Kd (HLA-A*01:01; [21]) was no less than 20 µM, the Kd (HLA-A*03:01 [6]; [21]) was no less than 20 µM and the Kd (HLA-B*44:02; [21]) was no less than 20 µM. For the same sequence, the Kd (HLA-B*27:05; [21]) was no less than 20 µM, the Kd (HLA-A*26:01 [12]; [21]) was no less than 20 µM and the Kd (HLA-A*02:01 [13]; [21]) was 330 nM. The Kd (HLA-B*58:01; [21]) was no less than 20 µM.

In the case of TMLYNKMEF, the Kd (HLA-B*08:01 [14]) is reported as 3000 nM, the Kd (HLA-B*35:01 [15]) is reported as 1260 nM and the Kd (HLA-B*39:01; [22]) is reported as no less than 20 µM. The Kd (HLA-B*15:17; [22]) was 0.311 µM, the Kd (HLA-B*57:01; [22]) was no less than 20 µM and the Kd (HLA-B*46:01; [22]) was no less than 20 µM. It also gave a Kd (HLA-A*68:02 [16]) of 4.44 µM, a Kd (HLA-A*02:06) of 312 nM and a Kd (HLA-A*26:02) of no less than 20 µM. The Kd (HLA-A*23:01; [23]) was 0.047 µM, the Kd (HLA-B*07:02; [23]) was no less than 20 µM and the Kd (HLA-A*31:01; [23]) was no less than 20 µM. It also gave a Kd (HLA-B*15:01 [9]; source organism: Influenza A virus (A/Puerto Rico/8/34/Mount Sinai(H1N1))) of 0.118 µM, a Kd (HLA-A*02:19; [24]) of no less than 5 µM and a Kd (HLA-A*11:01 [11]; [23]) of no less than 20 µM. For the same sequence, the Kd (HLA-A*24:03; [23]) was 0.0114 µM, the Kd (HLA-A*02:03; [24]) was no less than 20 µM and the Kd (HLA-A*02:11; [24]) was 0.157 µM. The Kd (HLA-A*01:01; [23]) was no less than 20 µM, the Kd (HLA-A*03:01 [6]; [23]) was no less than 20 µM and the Kd (HLA-B*27:05; [23]) was no less than 20 µM. The Kd (HLA-A*02:12; [24]) was 3.47 µM, the Kd (HLA-A*26:01 [12]; [24]) was no less than 20 µM and the Kd (HLA-A*02:01 [13]; [23]) was 604 nM. The Kd (HLA-B*58:01; [23]) was no less than 20 µM.

FAAWIQQTY showed a Kd (HLA-B*46:01; source organism: Vibrio parahaemolyticus AN-5034) of 0.125 µM and a Kd (HLA-B*35:01 [8]; source organism: Vibrio parahaemolyticus RIMD 2210633) of 10 nM.

Work on FLILPQAKK yielded an IC50 (HLA-A*11:01 [17]) of 1670 nM, an IC50 (HLA-A*03:01 [18]) of 4.4 µM and an IC50 (HLA-A*02:01 [19]) of 64.7 µM. It also gave a Kd (HLA-B*39:01; [25]) of no less than 20 µM, a Kd (HLA-B*15:17; [25]) of no less than 20 µM and a Kd (HLA-B*15:01 [1]; [25]) of no less than 20 µM. It also gave a Kd (HLA-A*69:01 [2]; [25]) of no less than 20 µM, a Kd (HLA-B*57:01; [25]) of no less than 20 µM and a Kd (HLA-B*46:01; [25]) of no less than 20 µM. It also gave a Kd (HLA-B*18:01; [25]) of no less than 20 µM, a Kd (HLA-B*51:01; [25]) of no less than 20 µM and a Kd (HLA-B*27:03) of no less than 20 µM. It also gave a Kd (HLA-A*26:01 [3]; [25]) of no less than 20 µM, a Kd (HLA-A*02:01 [4]; [25]) of no less than 20 µM and a Kd (HLA-A*23:01; [25]) of no less than 20 µM. For the same sequence, the Kd (HLA-A*02:16; [25]) was no less than 20 µM, the Kd (HLA-A*02:19; [25]) was no less than 20 µM and the Kd (HLA-A*29:02; [25]) was no less than 20 µM. It also gave a Kd (HLA-A*24:03; [25]) of no less than 20 µM, a Kd (HLA-A*68:02 [5]; [25]) of no less than 20 µM and a Kd (HLA-A*02:03; [25]) of no less than 20 µM. For the same sequence, the Kd (HLA-A*02:11; [25]) was no less than 20 µM, the Kd (HLA-A*03:01 [6]; [25]) was no less than 20 µM and the Kd (HLA-A*02:12; [25]) was no less than 20 µM.
